In PMC6143433 (Biochemistry, 2018):

Molecular target: the molecule itself
Experiment: SEC

B1: MftE from M. ulcerans (enzyme, UniProt A0PM51 1-250, looked up)
chain: MNSSYHRRVPVLGELGTSTSSQLPSTWPSILIPLGSTEQHGPHLPLDTDTRIATAVGRAVATRMHGRLTQCQPGWLLAPPIAYGASGEHQSFAGTISIGAEALRVLLLEYGRSAACWADRLVFVNGHGGNVEALRGAVRQLRAEGRDAGWSACGSAGGDAHAGHTETSVLLHISPEVVLTDRLSAGNAAPLAELLPSLRRGGVAAVSPIGVLGDPTTATAVEGRRIFAEMVDDCVSRIARWTPGPDGMLT
In the case of B1, the “stoichiometry N” value is reported as 8.
